Data reported in patent publication US10131702B2, “Glucagon-GLP-1-GIP triple agonist compounds” (priority 2013, dated 2018).
Where two headings read alike, the source gives them in different places. Numbered stars: 1 amine (or outer) side, 2 acyl side, 3 side chain; on linkers, the order of the positions; unused ones are H or OH. Square brackets hold non-standard residues; d marks the D form. Side chains are listed from the residue outwards. Peptide text beside a SMILES is read from it. * marks the point of attachment. C18 diacid = O=C(O)CCCCCCCCCCCCCCCCC(=O)*; γGlu = O=C(O)[C@H](CCC(=O)[*:2])N[*:1]; Stearoyl = CCCCCCCCCCCCCCCCCC(=O)*; Aib = CC(C)(N)C(=O)O

Key:
human GIP R = biological target: T1, human GIP R (Homo sapiens, UniProt P48546); assay: cAMP induction in HEK293 cells expressing human GIP R (AlphaScreen cAMP kit); format: cell-based; conditions: read-out: GIP R (EC50 in nM)
T1 construct: expressed in transfected cells
T1 sequence (P48546 22-466): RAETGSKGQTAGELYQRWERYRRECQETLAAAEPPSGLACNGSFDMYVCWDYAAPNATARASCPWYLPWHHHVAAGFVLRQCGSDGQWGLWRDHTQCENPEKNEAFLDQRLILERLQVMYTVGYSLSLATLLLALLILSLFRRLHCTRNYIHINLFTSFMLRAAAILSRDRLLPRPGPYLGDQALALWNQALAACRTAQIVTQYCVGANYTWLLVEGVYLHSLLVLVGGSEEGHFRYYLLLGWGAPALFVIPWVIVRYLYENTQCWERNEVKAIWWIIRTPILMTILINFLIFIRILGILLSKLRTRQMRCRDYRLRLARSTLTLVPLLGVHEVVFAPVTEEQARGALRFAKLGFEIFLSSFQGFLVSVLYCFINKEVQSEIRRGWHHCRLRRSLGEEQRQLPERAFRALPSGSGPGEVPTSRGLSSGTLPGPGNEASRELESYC

human GLP-1 R = biological target: T2, human GLP-1 R (Homo sapiens, UniProt P43220); assay: cAMP induction in HEK293 cells expressing human GLP-1 R (AlphaScreen cAMP kit); format: cell-based; conditions: average EC50, cAMP, HEK293 cells expressing human GLP-1 R, read-out: GLP1 R (EC50 in nM)
T2 construct: expressed in transfected cells

human GCG R = biological target: T3, human GCG R (Homo sapiens, UniProt P47871); assay: cAMP induction in HEK293 cells expressing human GCG R (AlphaScreen cAMP kit); format: cell-based; conditions: Table 2; average EC50, cAMP, HEK293 cells expressing human GCG R; read-out: GCG R (EC50 in nM)
T3 construct: expressed in transfected cells
Description: Briefly, HEK293 cells expressing the human GIP R, GLP-1 R or GCG R (stable cell lines generated through transfection of the cDNA for human GIP R, GLP-1 R or GCG R and selection of stable clones) were seeded at 30,000 cells/well in 96-well microtiter plates coated with 0.01% poly-L-lysine, and grown for 1 day in culture in 200 μl growth medium (DMEM, 10% FCS, Penicillin (100 IU/ml), Streptomycin (100 μg/ml)). On the day of analysis, growth medium was removed and the cells were washed once with 150 μl Tyrode's buffer (Tyrode's Salts (9.6 g/l), 10 mM HEPES, pH 7.4). […] The Assay buffer was removed and cells are lysed in 80 μl Lysis buffer (0.1% w/v BSA, 5 mM HEPES, 0.3% v/v Tween-20) per well. From each well 10 μl of lysed cells were transferred to a 384-well plate and mixed with 15 μl bead-mix (1 Unit/15 μl anti-cAMP Acceptor Beads, 1 Unit/15 μl Donor Beads, and 1 Unit/15 μl Biotinylated cAMP in Assay Buffer). The plates were mixed and incubated in the dark for an hour at room temperature before measuring using an Envision™ plate reader (Perkin-Elmer).
The resulting cAMP curves were plotted as absolute cAMP concentrations (nM) over log (test compound concentration) and analyzed using the curve fitting program XLfit.
Parameters calculated to describe both the potency as well as the agonistic activity of each test compound on the receptors were:
EC50, a concentration resulting in a half-maximal elevation of cAMP levels, reflecting the potency of the test compound.

in vivo = assay: in vivo; parameters: species or system C57BL/6J mice; conditions: male, C57BL/6J, mouse, iv, 200 nmol/kg
Excerpt: Pharmacokinetics of Selected Compounds in Mice Method C57BL/6J mice (males with a body weight of approximately 25 g) were given a single intravenous (i.v.) bolus of each peptide to be tested. […] Blood samples were drawn by sublingual bleeding. The dosing vehicle was a phosphate buffer containing mannitol (pH 7.5). At each sampling time point, samples from two mice were drawn, i.e. 16 mice were included for each compound. The mice were euthanized immediately after blood sampling by cervical dislocation. Plasma samples were analyzed after solid phase extraction (SPE) or precipitation by liquid chromatography mass spectrometry (LC-MS/MS). Mean plasma concentrations were used for calculation of the pharmacokinetic parameters using the non-compartmental approach in Phoenix WinNonlin 6.3. Plasma terminal elimination half-life (T½) was determined as […] where λz is the magnitude of the slope of the log linear regression of the log concentration versus time profile during the terminal phase.

[1] = biological target: human GIP receptor (human) (UniProt P48546); assay: cell-based or functional assay
[2] = biological target: human glucagon receptor (human) (UniProt P47871); assay: cell-based or functional assay
[3] = biological target: human glucagon-like peptide 1 receptor (human) (UniProt P43220); assay: cell-based or functional assay
[4] = biological target: human GIP receptor (human) (UniProt P48546); assay: cell-based or functional assay; remark: listed apart in the source
[5] = biological target: human glucagon-like peptide 1 receptor (human) (UniProt P43220); assay: cell-based or functional assay; remark: listed apart in the source
[6] = Table 2b (most comprehensive data), average EC50, cAMP
[7] = Table 2b (most comprehensive data)

human glucagon receptor (human), sequence (P47871 26-477): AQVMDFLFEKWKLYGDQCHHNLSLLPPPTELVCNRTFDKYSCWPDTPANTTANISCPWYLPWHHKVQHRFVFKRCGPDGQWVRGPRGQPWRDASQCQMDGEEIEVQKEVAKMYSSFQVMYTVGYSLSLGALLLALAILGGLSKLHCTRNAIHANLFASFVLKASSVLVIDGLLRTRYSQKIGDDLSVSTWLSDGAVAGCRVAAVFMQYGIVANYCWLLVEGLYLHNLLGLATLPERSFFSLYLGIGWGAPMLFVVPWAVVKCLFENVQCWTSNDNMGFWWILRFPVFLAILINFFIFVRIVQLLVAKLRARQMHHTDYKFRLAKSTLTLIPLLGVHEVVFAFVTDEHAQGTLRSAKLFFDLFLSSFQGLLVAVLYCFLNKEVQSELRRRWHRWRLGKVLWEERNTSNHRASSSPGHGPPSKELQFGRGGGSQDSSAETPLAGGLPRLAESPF
human glucagon-like peptide 1 receptor (human), sequence (P43220 24-463): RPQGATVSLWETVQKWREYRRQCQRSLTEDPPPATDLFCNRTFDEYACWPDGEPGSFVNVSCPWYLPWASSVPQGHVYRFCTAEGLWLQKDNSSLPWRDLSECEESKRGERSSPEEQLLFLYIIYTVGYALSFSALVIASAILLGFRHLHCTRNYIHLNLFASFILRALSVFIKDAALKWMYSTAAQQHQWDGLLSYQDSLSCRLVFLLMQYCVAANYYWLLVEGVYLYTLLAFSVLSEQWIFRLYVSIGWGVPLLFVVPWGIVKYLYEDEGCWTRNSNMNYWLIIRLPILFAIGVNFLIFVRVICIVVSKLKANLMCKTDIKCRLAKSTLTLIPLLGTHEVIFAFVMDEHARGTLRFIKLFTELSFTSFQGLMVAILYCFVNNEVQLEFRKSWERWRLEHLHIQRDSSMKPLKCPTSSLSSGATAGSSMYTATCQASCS
T2 sequence (P43220 24-463): as above
T3 sequence (P47871 26-477): as the sequence (P47871 26-477) above

Molecule: CCCCCCCCCCCCCCCC(=O)N[C@@H](CCC(=O)NCCCC[C@H](NC(=O)[C@H](CCC(=O)O)NC(=O)[C@H](CC(=O)O)NC(=O)[C@H](CC(C)C)NC(=O)[C@H](Cc1ccc(O)cc1)NC(=O)[C@@H](NC(=O)[C@H](CO)NC(=O)[C@H](Cc1ccc(O)cc1)NC(=O)[C@H](CC(=O)O)NC(=O)[C@H](CO)NC(=O)[C@@H](NC(=O)[C@H](Cc1ccccc1)NC(=O)[C@@H](NC(=O)CNC(=O)[C@H](CCC(N)=O)NC(=O)C(C)(C)NC(=O)[C@@H](N)Cc1ccc(O)cc1)[C@@H](C)O)[C@@H](C)O)[C@@H](C)CC)C(=O)N[C@@H](C)C(=O)N[C@@H](C)C(=O)N[C@@H](Cc1c[nH]cn1)C(=O)N[C@@H](CC(=O)O)C(=O)N[C@@H](Cc1ccccc1)C(=O)N[C@H](C(=O)N[C@@H](CCC(=O)O)C(=O)N[C@@H](Cc1c[nH]c2ccccc12)C(=O)N[C@@H](CC(C)C)C(=O)N[C@@H](CC(C)C)C(=O)N[C@@H](CO)C(=O)N[C@@H](C)C(N)=O)C(C)C)C(=O)O [Compound 28] (HELM PEPTIDE1{Y.[Aib].Q.G.T.F.T.S.D.Y.S.I.Y.L.D.E.K.A.A.H.D.F.V.E.W.L.L.S.A.[am]}|PEPTIDE2{[CCCCCCCCCCCCCCCC(=O)[*:2]].[gGlu]}$PEPTIDE1,PEPTIDE2,17:R3-2:R2$$$V2.0)
- EC50 (human GIP R; Table 2, average EC50, cAMP): 0.054 nM
- EC50 (human GIP R; [6]): 0.058 nM
- EC50 (human GLP-1 R; Table 2): 0.058 nM
- EC50 (human GLP-1 R; [7]): 0.16 nM
- EC50 (human GCG R): 0.16 nM
- half-life (in vivo): 7.8 h

Molecule: CCCCCCCCCCCCCCCC(=O)N[C@@H](CCC(=O)NCCCC[C@H](NC(=O)[C@H](CCCCN)NC(=O)[C@H](CCC(=O)O)NC(=O)[C@H](CC(C)C)NC(=O)[C@H](Cc1ccc(O)cc1)NC(=O)[C@@H](NC(=O)[C@H](CO)NC(=O)[C@H](Cc1ccc(O)cc1)NC(=O)[C@H](CC(=O)O)NC(=O)[C@H](CO)NC(=O)[C@@H](NC(=O)[C@H](Cc1ccccc1)NC(=O)[C@@H](NC(=O)CNC(=O)[C@H](CCC(N)=O)NC(=O)C(C)(C)NC(=O)[C@@H](N)Cc1ccc(O)cc1)[C@@H](C)O)[C@@H](C)O)[C@@H](C)CC)C(=O)N[C@@H](C)C(=O)N[C@@H](C)C(=O)N[C@@H](CCCCN)C(=O)N[C@@H](CCC(=O)O)C(=O)N[C@@H](Cc1ccccc1)C(=O)N[C@H](C(=O)N[C@@H](CCC(=O)O)C(=O)N[C@@H](Cc1c[nH]c2ccccc12)C(=O)N[C@@H](CC(C)C)C(=O)N[C@@H](CC(C)C)C(=O)N[C@@H](CO)C(=O)N[C@@H](C)C(=O)NCC(=O)N1CCC[C@H]1C(=O)N[C@@H](CO)C(=O)N[C@@H](CO)C(=O)NCC(=O)N[C@@H](C)C(=O)N1CCC[C@H]1C(=O)N1CCC[C@H]1C(=O)N1CCC[C@H]1C(=O)N[C@@H](CO)C(N)=O)C(C)C)C(=O)O [Compound 32] (HELM PEPTIDE1{Y.[Aib].Q.G.T.F.T.S.D.Y.S.I.Y.L.E.K.K.A.A.K.E.F.V.E.W.L.L.S.A.G.P.S.S.G.A.P.P.P.S.[am]}|PEPTIDE2{[CCCCCCCCCCCCCCCC(=O)[*:2]].[gGlu]}$PEPTIDE1,PEPTIDE2,17:R3-2:R2$$$V2.0)
- EC50 (human GIP R; Table 2, average EC50, cAMP): 0.044 nM
- EC50 (human GIP R; [6]): 0.015 nM
- EC50 (human GLP-1 R; Table 2): 0.015 nM
- EC50 (human GLP-1 R; [7]): 0.15 nM
- EC50 (human GCG R): 0.15 nM
- half-life (in vivo): 4.1 h

B1: Compound 15 (peptide)
peptide: YXQGTFTSDYSIYLEKKAAHDFVEWLLSA
HELM: PEPTIDE1{Y.[Aib].Q.G.T.F.T.S.D.Y.S.I.Y.L.E.K.K.A.A.H.D.F.V.E.W.L.L.S.A.[am]}$$$$V2.0
SMILES: CC[C@H](C)[C@H](NC(=O)[C@H](CO)NC(=O)[C@H](Cc1ccc(O)cc1)NC(=O)[C@H](CC(=O)O)NC(=O)[C@H](CO)NC(=O)[C@@H](NC(=O)[C@H](Cc1ccccc1)NC(=O)[C@@H](NC(=O)CNC(=O)[C@H](CCC(N)=O)NC(=O)C(C)(C)NC(=O)[C@@H](N)Cc1ccc(O)cc1)[C@@H](C)O)[C@@H](C)O)C(=O)N[C@@H](Cc1ccc(O)cc1)C(=O)N[C@@H](CC(C)C)C(=O)N[C@@H](CCC(=O)O)C(=O)N[C@@H](CCCCN)C(=O)N[C@@H](CCCCN)C(=O)N[C@@H](C)C(=O)N[C@@H](C)C(=O)N[C@@H](Cc1c[nH]cn1)C(=O)N[C@@H](CC(=O)O)C(=O)N[C@@H](Cc1ccccc1)C(=O)N[C@H](C(=O)N[C@@H](CCC(=O)O)C(=O)N[C@@H](Cc1c[nH]c2ccccc12)C(=O)N[C@@H](CC(C)C)C(=O)N[C@@H](CC(C)C)C(=O)N[C@@H](CO)C(=O)N[C@@H](C)C(N)=O)C(C)C
- EC50 (cAMP induction) [1]: 0.014 nM
- EC50 (cAMP induction) [2]: 0.058 nM
- EC50 (cAMP induction) [3]: 0.058 nM
- EC50 (cAMP induction) [4]: 0.025 nM
- EC50 (cAMP induction) [5]: 0.016 nM

B2: Compound 43 (peptide)
peptide: YXQGTFTSDYSIALDKKAQRAFVNWLVAXKPSSGAPPPS
modifications: X at 2 and 29 = Aib; Lys 17 as K(Octadecanoyl-Dapa-Peg3-Peg3); C-terminal amide (-NH2)
- EC50 (cAMP induction) [1]: 0.0098 nM
- EC50 (cAMP induction) [2]: 0.036 nM
- EC50 (cAMP induction) [3]: 0.014 nM

Molecule: H-Y[Aib]QGTFTSDLSIALEKK([Peg3-Peg3-γGlu-Stearoyl])AQRAFVEWLLAQK-NH2 [Compound 48]
- EC50 (cAMP induction) [1]: 0.013 nM
- EC50 (cAMP induction) [2]: 0.19 nM
- EC50 (cAMP induction) [3]: 0.013 nM

Molecule: H-Y[Aib]QGTFTSDYSIYLEKK([Peg3-Peg3-γGlu-C18 diacid])AQRAFVEWLLRA-NH2 [Compound 51]
- EC50 (cAMP induction) [1]: 0.033 nM
- EC50 (cAMP induction) [2]: 1.4 nM
- EC50 (cAMP induction) [3]: 0.026 nM
